Experimental data reported in paper PMC9297526.

Molecular target: human alpha-thrombin (human, UniProt P00734;P00734 328-363;364-622)
Experiment: ITC

B1: TBA (structured_DNA)
DNA: GGTTGGTGTGGTTGG
For B1, the Ka was 8.46e+06 M⁻¹.
